From PMC2954371

Target: mosPTP-1 including the transmembrane region (91bp-2202bp), Aedes aegypti AAEL013105, on S2 cells (Aedes aegypti)
Experiment: flow cytometry on cells

Substance: mosGCTL-1 (mosquito Galactose-specific binding C-Type Lectin), Aedes aegypti AAEL000563 (natural protein)
- percent of mosPTP-1-expressing cells that bound mosGCTL-1: > 40%
